Results reported in PMC4066749, “A sequence-based approach for prediction of CsrA/RsmA targets in bacteria with experimental validation in Pseudomonas aeruginosa”.

Tests used:
RsmA [1] = target: T1, RsmA (UniProt O69078 1-61); assay: ITC; 298 K; 1:1 single-site fit; 50 mM NaCl, 25 mM potassium phosphate pH 7.0; ITC at 298 K (125 uM RNA into 5-10 uM protein); SEC on Superdex 75 with 50 uM protein and 25 uM RNA, temperature not stated; settings: protein: recombinant; tags: His tag; chain copies: 2; hairpin
RsmA-R44A [2] = target: T2, RsmA-R44A (UniProt O69078 1-61, R44A); assay: analytical SEC; binding virtually eliminated; 50 uM protein, 25 uM RNA; 50 mM NaCl, 25 mM potassium phosphate pH 7.0; ITC at 298 K (125 uM RNA into 5-10 uM protein); SEC on Superdex 75 with 50 uM protein and 25 uM RNA, temperature not stated; settings: protein: recombinant; chain copies: 2; hairpin
RsmA [3] = target: T1, RsmA; assay: analytical SEC; 50 uM protein, 25 uM RNA; settings: protein: recombinant; tags: His tag; chain copies: 2; unstructured
RsmA-R44A [4] = target: T2, RsmA-R44A; assay: analytical SEC; no significant interaction, RNA largely unbound; settings: protein: recombinant; chain copies: 2; unstructured

Binder	Kd (RsmA [1]) [nM]	binding result (RsmA-R44A [2])	binding result (RsmA [3])	binding result (RsmA-R44A [4])
CCCCGAAGGAUCGGGG (structured_RNA) [RsmZ-2 (RsmZ stem-loop 2)]	276 ± 25	no binding	–	–
GAAGAGGAGCUUUCAUG (ssRNA) [algU RBS RNA]	–	–	binds	no binding
